Results as given in the DeepSol protein solubility set.

Test: soluble on expression in E. coli; label from the status in PepcDB or PDB records

Row | Sequence | soluble on expression in E. coli
1 | MPKAKGKTRRQKFGYSVNRKRLNRNARRKAARGIECSHIRHAWDHAKSVRQNLAEMGLAVDPNRAVPLRKRKVKAMEVDIEERPKELVRKPYVLNDLEAEASLPEKKGNTLSRDLIDYVRYMVENHGEDYKAMARDEKNYYQDTPKQIRSKINVYKRFYPAEWQDFLDSLQKRKMEVELEHHHHHH | not soluble
2 | MTNAKPENALAAIGIARKELDADRYILISSDLVYTPSNDPKAEDSRTEPITDEGRIFLTAESLMNQERDAIFRTGFIIGLCSVNLYTNVLNMVRSGMRLSLSKSTIRNFIRNADLSSFIMRSIERNISGVYNVASDASTAYDFAKRLCDMAGLKCTLEDSGEDLGNYTMDTSRSLKTFGMRPMSVFEGYTISGSFDLR | not soluble
3 | MGIKQYSQEELKEMALVEIAHELFEEHKKPVPFQELLNEIASLLGVKKEELGDRIAQFYTDLNIDGRFLALSDQTWGLRSWYPYDQLDEETQPTVKAKKKKAKKAVEEDLDLDEFEEIDEDDLDLDEVEEELDLEADDFDEEDLDEDDDDLEIEEDIIDEDDEDYDDEEEEIK | not soluble
4 | TKDFGYSFNANYATNTNEVKALGPGNAPIISTGSVDHAYYITKVGEPIGCYYLLVQDGIFSNEEELKKYPHFSNTQPGDFRFVDVDGDGVMDLDKDRTIVGNYMPDFTYGFGGKVWYKGIDLDFNFQGVYGNEILNLNRRYIDNLEGNTNGTTIALNRWKSADNPGNGQVNRANRKSKGYNGRTSTWHLEDGSYLRLQNVTLGYTLPQNLTRRFFVEKLRVYVSGQNLWTSTNYGGYNPEVNARPSNSLSPGEDYGTYPLAKTFLFGLNITL | not soluble
5 | MKIVRASRDQSAPVYGPRAGSQCMSNCFTFLHTCYLMGIDPVLDTTSLDAVLDSGARLDAIADEKVKRQALTDHPYRLGTEIPTVIETPAGITGHALSRPFNGTAETQDLGGYKCLGILDFLTYARGKPLPVYIIVTVGVHTRGVIVARGATYVFDPHTTDLSAEAAVYVCDDFTEAISALSFFTEMIGDFYYDAVLVYFTRCRTTLISPSELLVQIMDQYKDPDIDASVMS | soluble
6 | MSLPNIDSLFVTRLYRAALSEHGPAIDAKEMEASCYSIAEDDEAGQGWCDENGYPGYTSYASLSDLPWRFPIFADLVKVLDAHVAAFAEDLEFDLDGKELKLEDIWINILPEGGMHASHIHPHSVISGTTYVAMPEGTSALKLEDPRSARMMASPVRRKDARQELRTFIYAKPVVGDVLLWESWLRHEVPMNMSEEDRISVSFNYSWGEGHHHHHH | soluble
7 | NDAKKYIVSVLILLVAGMFGGCIKEDYSDCPRPFRLTVRAWDADMQDITETGAVQRVVIFVFDETGRRIDRLMMDAAQVAARKPIPLEYDGPTTVSFVAWANPDDHMLEETANVQNVKDLFFRLSSTDGIAQSPGDLFSGVLTCPIEYGSIEQGTDQTVDIYRRTAQVHIIIRGYQEWLEANGPRQLPDYADILLGETPDTYTGLAELIGNAVQYRPDGQIQNGDFISPIFRVYPTLDTTPLHLKLYAYGQELLNISTGSDGVPFIPVIGKMLNIYIDLRGANLNVLVSVTPWDVVQQYAE | not soluble
8 | MGSDKIHHHHHHANDETIEINYGESISLSAVAGKTTRTGSEATTTNSIRNFHVLAFTQGATYMDCDVRKQGNVWSYGDTKFWPETDVDFYSYSPMNTQNGNVSIKVEGDKKIANYNVPGDEDLLYALNQAEKKNEHEGERPVMVNFRHALSQIVFRIRNTSSNLTVFVDAVKVEGIEKQGTFFWPTLSTTTQWQGTEKDTETDNSWGRWNIVYNKENAKQNNYAAEIIPIMEQGFVGSIDASVRDLTVKTDNGYKGLLLLPQTLNPWITKTGGTDENPEYKITGTARVLVKCKLVDTVSNVQLWPNTNSHEETTWVGVSLVGEPKDINGKTEQVWKQGKRYVYTLIFGEGGGFNPDPDPENPDPEPVLVPITFAVTVDDFVEYPQDLDASVPNSNSGQ | not soluble
9 | AHHHHHHGSGRFKKVPSSLCPMKKPGDVLREILQEKGIKSVGTLSRKWPSGRDIYQELALLLLEGDGAIVELREETAESWDLNGKKVGPSKYAYVRPCFVEKFKVIVDGSEIAKRLPDYPWIIVDLTFWNRHIPKEKDKVALQLRETYAVVRRMYYPRRFAITWVNEEFKKKNKVPLEKVVSYEGSTADFLREKGINRVVLLDPNAEEVLSREDLQERAFIIGGIVDMKGDKKGTTAKIGEVLEKEGIDVLRRKIVLRGDIVGVPDRINHIAEILLRMLYGEDMEKAILAVQAPTHARWRLRKEIPKRKIRYLIDGKLYLVVEKELYDELKQWLNIRWEDFVKVLRETGMVALERRRIHHLNKISVFRFDKSGGKRVILLKRAALLCYNC | soluble
10 | GPHSMRYYETATSRRGLGEPRYTSVGYVDDKEFVRFDSDAENPRYEPQVPWMEQEGPEYWERITQVAKGQEQWFRVNLRTLLGYYNQSAGGTHTLQRMYGCDVGSDGRLLRGYEQFAYDGCDYIALNEDLRTWTAADMAAQITRRKWEQAGAAEYYRAYLEGECVEWLHRYLKNG | soluble
11 | METRREERIGQLLQELKRSDKLHLKDAAALLGVSEMTIRRDLNNHSAPVVLLGGYIVLEPRSASHYLLSDQKSRLVEEKRRAAKLAATLVEPDQTLFFDCGTTTPWIIEAIDNEIPFTAVCYSLNTFLALKEKPHCRAFLCGGEFHASNAIFKPIDFQQTLNNFCPDIAFYSAAGVHVSKGATCFNLEELPVKHWAMSMAQKHVLVVDHSKFGKVRPARMGDLKRFDIVVSDCCPEDEYVKYAQTQRIKLMYLEHHHHHH | soluble
12 | MPHTGSQHTLQATPKTAQHTGAQKAPEQAIALKKEQQLKNQEGATSHRKAHTEGCHTQKTRMSADKAGLRHRQGSGEVRARTASTRVEGECSSDGVVMMFCMPARGEEEKASGEARGEDVGSSRESRQGTAHKSTCMHTEAASLQKAGEIGKVEDAKT | not soluble
13 | LMINDVPGLVTAWWDEELQALRIKWFTEYAEGSAVADAVEFAMTYVNENGVKNWLCDLSESQEALKAEDQEWVQTEFKRLIAESSLEKVVLIPPLPETGQDTEWLKDWEANTKRDYGGQIDARLLSEEGEIQRFFEKG | not soluble
14 | MGSDKIHHHHHHMTTNIKTDFSPPATATPVLEMQGIAKRFHGVPALQGVNLTIYPGEVHALMGENGAGKSTLMKILAGAYIADEGEIRINGKGVKITDPGTARQAGINLIYQELNVAPNLTVTENIFMGSELTRGQFLDRKAMELEAQQVLASLGASFAPTDIVGTLAIAEQQQVEIARALKDNSRILVMDEPTAALSDRETERLFEVIRKLRNDGIAIIYISHRMEEIYALADRISVLRDGQYIGSLTREEISPQRLVQMMVGRSMQDFYEHQRQSNPGPVVLEVRNISDGRKVQPASFQLRAGEILGLAGLVGAGRTEVSRLIFGADRKVSGEVFLNGKKLEIHSPSDAIAVGIGYVPEDRKDQGLFLEMSSRKNIGLNRLKQDANLGIVNWGSVNKIATDAVENFHIRLANLEIRAVDLSGGNQQKLLLARWLAINPRVLMLDEPTRGVDIGAKSEIYRIISDLSAQGVAILMVSSELPEIVGLSDRVLVMREGQLVGELDNSIGKEITQENIMHYATGASEVTAS | not soluble
15 | AVSGIRQSLISRKALTLFKTVLPAMSQTEKEALDAGTVWWEAELFKGKPEWEKLHAIQAPKLSAEERAFLDGPVNEVCAMVSDFQVTHELADLPPEVWQYLKDNKFFAMIIK | not soluble
16 | MKSSDRLFTGRSENYSKFRPSYPVGIVKMLTDKYGLKKEMVIADIGCGTGILARMFLENGNKVYCIDPNGEMLKFAKDELSSFGNAIIVRGSAENTGLEDHSVNVISAGQSFHWFDTDKAKVEFRRILTAPYMVVLIWNDRDIDDGFTAEYEKIVSAYGKNYQGTGSTGLPPDTIPQFFNWAYDYYQYQNYQELDLEGLKGRYLSTFYSITQEYPKFQAAMKALETAFNAFSVDGKVRIRYITKVFVGKLNPLEHHHHHH | soluble
17 | MGSDKIHHHHHHMSELITTGVDIGSGCIKTVVFKVNGDKVEWLGKETSRIRNRDPFQLTTETYNHMLKSAGVDAKDVAYVASTGDAENLSFATGHFYSMTTHGRGGLYLNPEARAVLDIGALNGRAIRMDGVGKVLSYKMTSQCASGSGQFLENIARYLGIAQDEIGSLSMKADDPEKVSSICAVLAETDVINMVSRGISASNILKGIHVSMAVRLAKLLKSIGAVDGIVQVTGGLALDTGLVAALNEAAEQEKVNLKAVSHPDSIYAGAIGAALWGAFRHEKLARLGQAA | not soluble
18 | MSDIFNSPQNKASILTALMKSTTGDVEDVLIPKRFRPAKDPLDSPQAAAQFLKDNKYRILRPRAIPTMVELETDAALPRLRQMVEDGKLKDTVSVPEGTTAFYPKYYPFHKPDHDEVGTFGAPDITLLKQLTFFLLENDFPTGPETLRQVREAIATLQYGSGSYSGQLNRLLAMKGVATGRNPNKTPKTVGYTNEQLAKLLEQTLPINTPKHEDPDLRWAPSWLINYTGDLSTDKSYLPHVTIKSSAGLPYIGKTKGDTTAEALVLADSFIRDLGRAATSADPEAGVKKTITDFWYLSCGLLFPKGERYTQVDWDKKTRNIWSAPYPTHLLLSMVSTPVMNESKLNITNTQTPSLYGFSPFHGGMDRIMTIIRDSLDNDEDLVMIYADNIYILQDNTWYSIDLEKGEANCTPQHMQAMMYYLLTRGWTNEDGSPRYNPTWATFAMNVAPSMVVDSSCLLMNLQLKTYGQGSGNAFTFLNNHLMSTIVVAEWVKAGKPNPMTKEFMDLEEKTGINFKIERELKNLRETIVEAVETAPQDGYLADGSDLPPIRPGKAVELDLLGWSAIYSRQMEMFVPVLENERLIASAAYPKGLENKALARKPGAEIAYQIVRYEAIRLVGGWNNPLLETAAKHMSLDKRKRLEVKGIDVTGFLDDWNNMSEFGGDLEGITLSEPLTNQTLVDINTPLDSFDPKARPQTPRSPKKTLDEVTTAITSGTYKDPKSAVWRLLDQRTKLRVSTLRDQALALKPASSSVDNWAEATEELAQQQQLLMKANNLLKSSLTETREALETIQSDKIIAGKSNPEKNPGTAANPVVGYGEFSEKIPLTPTQKKNAKRREKQRRNQ | not soluble
19 | MANEMKVFLLTKQGQEVMERQRKKQVLLSDPKAVYQDHFVSVRPDCLVVKKYFIPSMLPFEFHWDKIETMTYLPQNNENKLLVPNRGQDQEGRWWATDVLRPHERELHLYNVRIDVADTEPSKSGFTVIHIDQFLKSCRHLLPYSCKLSGCVWSE | not soluble
20 | MNKILLQCDNLCKRYQEGTVQTDVLHDVSFSIGEGEMMAIVGSSGSGKSTLLHLLGGLDTPTSGDVIFSGQPMSKLSSAAKAELRNQKLGFIYQFHHLLPDFTALENVAMPLLIGKKKPAEIDARAREMLHAVGLEHRATHRPSELSGGERQRVAIARALVNNPRLVLADEPTGNLDARNADSIFELLGELNRLQGTAFLVVTHDLQLAKRMSRQLEMRDGRLTAELSLMGAE | not soluble
21 | MSLLVMKCSKCSAEAIYYAKYNGLYLCRDHFNEMIEGRVKKEIRKQVEFHGDDVTISVALSGGKDSSVTLFLLHKILGNRKNMKIKAFTVDEGIDGYRPSGLESAKRLCTSLGIDHETISFYDSYGLTLDSIVKTNPVKIPCAYCGPLRRKLINEMADKQDADYVALGLNLDDYSQSILMNVAKGDFDRFIRMSPQTDRKVGLVRRIAPLRTILEKEVVLYAVTNDIPFDSSWCPYYSRAQRNVFREVVNKLSEENPSTKFAILKFFDRVRENITTGHEEVKLKRCKICGAPTERDVCTACSSLQEVNEMMAEHEGHHHHHH | soluble
